Reference: paper PMC10889554, “An Unusual Two-Domain Thyropin from Tick Saliva: NMR Solution Structure and Highly Selective Inhibition of Cysteine Cathepsins Modulated by Glycosaminoglycans” (International Journal of Molecular Sciences, 2024)

Experiments:
Assay in all cases: enzyme inhibition kinetics (fluorogenic peptide substrate activity assay); inhibitor preincubated with protease 15 min, 37 °C; IC50 from residual velocities, Ki by the Cheng-Prusoff equation; 50 mM sodium acetate pH 5.5, 0.1% polyethylene glycol 1500, 2.5 mM dithiothreitol (cathepsins L, K, V, B, F, C and papain; 50 mM NaCl for cathepsin C)
Conditions in all cases: both partners purified
Carica papaya papain = target: T1, Carica papaya papain (Carica papaya, UniProt P00784 134-345)
T1 construct: source: bought: Merck
T1 sequence (looked up): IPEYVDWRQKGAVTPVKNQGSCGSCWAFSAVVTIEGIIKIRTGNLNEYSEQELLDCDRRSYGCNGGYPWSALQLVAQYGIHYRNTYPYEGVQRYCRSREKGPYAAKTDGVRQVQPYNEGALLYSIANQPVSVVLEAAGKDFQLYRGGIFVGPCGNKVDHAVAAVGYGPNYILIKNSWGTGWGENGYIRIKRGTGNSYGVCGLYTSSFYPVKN

human cathepsin V = target: T2, human cathepsin V (human, UniProt O60911 114-334)
T2 construct: source: Pichia pastoris expression system, as described previously [12,56,57]

human cathepsin K = target: T3, human cathepsin K (human, UniProt P43235 115-329)
T3 construct: source: Pichia pastoris expression system, as described previously [12,56,57]
T3 sequence (looked up): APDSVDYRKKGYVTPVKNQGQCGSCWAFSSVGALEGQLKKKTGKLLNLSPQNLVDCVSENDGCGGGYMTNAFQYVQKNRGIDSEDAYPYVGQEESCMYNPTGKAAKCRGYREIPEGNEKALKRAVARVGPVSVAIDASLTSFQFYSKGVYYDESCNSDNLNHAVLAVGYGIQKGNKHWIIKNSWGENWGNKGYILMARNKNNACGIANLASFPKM

human cathepsin L = target: T4, human cathepsin L (human)
T4 construct: source: Pichia pastoris expression system, as described previously [12,56,57]

human cathepsin F = target: T5, human cathepsin F (human, UniProt Q9UBX1 271-484)
T5 construct: source: bought: Enzo Life Sciences
T5 sequence (looked up): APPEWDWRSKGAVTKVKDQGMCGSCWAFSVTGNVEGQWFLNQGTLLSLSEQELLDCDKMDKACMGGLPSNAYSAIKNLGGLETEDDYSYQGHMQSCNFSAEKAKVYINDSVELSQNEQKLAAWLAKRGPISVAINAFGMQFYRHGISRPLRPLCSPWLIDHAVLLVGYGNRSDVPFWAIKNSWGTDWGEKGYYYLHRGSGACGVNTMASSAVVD

T2 sequence (O60911 114-334): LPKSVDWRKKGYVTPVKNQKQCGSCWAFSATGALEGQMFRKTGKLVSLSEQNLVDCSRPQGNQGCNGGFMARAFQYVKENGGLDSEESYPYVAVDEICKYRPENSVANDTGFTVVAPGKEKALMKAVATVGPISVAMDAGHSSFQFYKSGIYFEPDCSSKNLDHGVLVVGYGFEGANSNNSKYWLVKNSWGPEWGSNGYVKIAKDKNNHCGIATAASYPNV

B1: IrThy-Nd, recombinant N-terminal Tg1 domain of IrThy (domain or fragment)
chain: SNAASVPTRVANHGASRPLSDCEQRKQREERNTGPLAIHIECNPDGSYKPMQCFGNPDQPRRMCACYDQEYDQIKAPSRQLKSCK
Ki (Carica papaya papain): 153 nM
Ki (human cathepsin V): 27.2 nM
Ki (human cathepsin K): 43.7 nM
Ki (human cathepsin L): 179 nM
Ki (human cathepsin F): 207 nM
